Measurements published in paper PMC11891404, “Thermodynamic versus kinetic basis for the high conformational stability of nanobodies for therapeutic applications” (Febs Letters, 2024).

B1: NB-AGT-6 (VHH)
VHH: QVQLVESGGGSVQTGGSLRLACVASGFTSDHYSIGWFRQAPGKEREGVSCIGMHDGSTKYAESVKGRFTISSDNDKNTVYLQMNSLKPEDTAVYYCAAGPLVLLDSDTYQSWGEGTQVTVSS
notes: also in the AlphaFold 2 model files of Data S1; Selected by phage display from an immunised llama; Covalently immobilised on the NTA chip after capture by its His tag; also called NB-6; nanobody 6 raised against AGT-LM; source: E. coli BL21 (DE3), pET-24(+), purified (IMAC, SuperDex 75 SEC); not shown: His6, C-terminal, kept
B2: NB-AGT-1 (VHH)
VHH: QVQLVESGGGLVQAGDSLRLSCAASGLAFSTYGMGWFRQAPGKEREFVADINWSGSSTYVADSVKGRFTISRDNAKNTVYLQMNRLKPEDTAVYSCAAAPGGGLRAGPSRRYEYWGQGTQVTVSS
notes: also in the AlphaFold 2 model files of Data S1; Selected by phage display from an immunised llama; Covalently immobilised on the NTA chip after capture by its His tag; also called NB-1; nanobody 1 raised against AGT-LM; source: E. coli BL21 (DE3), pET-24(+), purified (IMAC, SuperDex 75 SEC); not shown: His6, C-terminal, kept

Target: T1, AGT-LM, minor allele of the human alanine glyoxylate aminotransferase (Homo sapiens, AGXT minor allele (AGT-LM), UniProt P21549, strain)
T1 construct: alanine:glyoxylate aminotransferase, human, minor allele (AGT-LM)
Test: SPR; Biacore T200; His-tagged NB-AGT captured on a Ni-loaded NTA chip and covalently immobilised (EDC/NHS); AGT-LM injected at 0.74-60 nM in HBS-EP+ (10 mM HEPES, 150 mM NaCl, 3 mM EDTA, 0.05% Tween 20), single cycle kinetics, 120 s pulses, 70 uL/min; 25 °C; 1:1 interaction model
Settings: both partners purified

Binder | Kd [nM]
B1 | ~0.005
B2 | 3.8
